Experiment [1] has as its target SARS-CoV-2 spike protein receptor binding domain (RBD) (SARS-CoV-2, UniProt P0DTC2 319-541).
Experiment [2] concerns the target human neonatal Fc receptor (FcRn) (human, UniProt P55899 24-365). The experiment can be described thus: SPR; pH 6.0. (In general: In SPR one partner is held on a chip, and binding of the other changes the refractive index at the surface.)

Residue numbers refer to the chain shown, from its start. In names and notes the source's numbering stands.

Chain of human neonatal Fc receptor (FcRn) (P55899 24-297, chain 1 of 2): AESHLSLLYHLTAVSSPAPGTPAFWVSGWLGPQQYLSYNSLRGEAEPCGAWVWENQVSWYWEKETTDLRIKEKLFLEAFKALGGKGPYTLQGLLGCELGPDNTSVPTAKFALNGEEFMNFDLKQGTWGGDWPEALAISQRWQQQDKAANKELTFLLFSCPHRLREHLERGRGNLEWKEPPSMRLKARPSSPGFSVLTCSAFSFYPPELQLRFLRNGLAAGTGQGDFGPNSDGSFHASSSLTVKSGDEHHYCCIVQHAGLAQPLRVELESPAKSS
Chain of human neonatal Fc receptor (FcRn) (chain, as listed by the source, chain 2 of 2): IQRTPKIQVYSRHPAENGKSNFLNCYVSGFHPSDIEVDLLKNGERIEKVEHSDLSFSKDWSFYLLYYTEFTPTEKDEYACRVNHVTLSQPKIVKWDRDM

B1: romlusevimab (BRII-198) (antibody)
chain 1: QVQLVQSGSELKKPGASVKVSCKASGYTFTTYVMNWVRQAPGQGLEWMGWINTNTGNPTYAQGFTGRFVFSLDTSVSTASLQISSLKAEDTAVYYCSSEITTLGGMDVWGQGTTVTVSS
chain 2: SYVLTQPPSVSVAPGKTARITCGGNNIGSKSVHWYQQKPGQAPVLVIYYDSDRPSGIPERFSGSNSGNTATLTISGVEAGDEADYYCQVWDSISDHRVFGGGTKLTVL
B1 displayed an IC50 in experiment [1] of over 200 nM.

B2: P2B-1G5 (precursor of romlusevimab) (antibody)
chain 1: B1 chain 1 with S98C
chain 2: B1 chain 2
modifications: soluble extracellular FCGRT with beta-2-microglobulin assumed by convention (subunits and limits not given); assayed at pH 6.0
Consider B2, for which the Kd in experiment [2] worked out at 2.51 nM.

By IC50 is commonly meant the concentration needed to halve the response being measured. Low values mean greater potency in that assay, high ones weaker potency in that assay. Broadly, the Kd is the constant that tells how readily two partners part at equilibrium. The low end stands for a tighter complex, the high end for a looser complex.

The values are drawn from publication PMC9518701 (2022).
